Assay results: the PETadex activity labels (doi:10.1042/bj20051645)

The proteins below were run on p-NP-C4. Settings: pH 7; 37 °C.

Protein | Km [µM] | kcat [s⁻¹] | kcat/Km [M⁻¹ s⁻¹]
unnamed (protein) MMNFNNVFRWHLPFLFLVLLTFRAAAADTLLILGDSLSAGYRMSASAAWPALLNDKWQSKTSVVNASISGDTSQQGLARLPALLKQHQPRWVLVELGGNDGLRGFQPQQTEQTLRQILQDVKAANAEPLLMQIRLPANYGRRYNEAFSAIYPKLAKEFDVPLLPFFMEEVYLKPQWMQDAGIHPNRDAQPFIADWMAKQLQPLVNHDS | 1880 | 5.98 | 3180
unnamed (protein) MMNFNNVFRWHLPFLFLVLLTFRAAAADTLLILGDSLSAGYRMSASAAWPALLNDKWQSKTSVVNASISGDTSQQGLARLPALLKQHQPRWVLVELGGNDGLRGFQPQQTEQTLRQILQDVKAANAEPLLMQIRLPANYGRRYNEAFSAIYPKLAKEFDVPLLPFFMEEVYLKPQWMQDDGIAPNRDAQPFIADWMAKQLQPLVNHDS | 610 | 0.0093 | 15.2
unnamed (protein) MMNFNNVFRWHLPFLFLVLLTFRAAAADTLLILGDALSAGYRMSASAAWPALLNDKWQSKTSVVNASISGDTSQQGLARLPALLKQHQPRWVLVELGGNDGLRGFQPQQTEQTLRQILQDVKAANAEPLLMQIRLPANYGRRYNEAFSAIYPKLAKEFDVPLLPFFMEEVYLKPQWMQDDGIHPNRDAQPFIADWMAKQLQPLVNHDS | 1550 | 0.16 | 103
unnamed (protein) MMNFNNVFRWHLPFLFLVLLTFRAAAADTLLILGDSLSAGYRMSASAAWPALLNDKWQSKTSVVNASISADTSQQGLARLPALLKQHQPRWVLVELGGNDGLRGFQPQQTEQTLRQILQDVKAANAEPLLMQIRLPANYGRRYNEAFSAIYPKLAKEFDVPLLPFFMEEVYLKPQWMQDDGIHPNRDAQPFIADWMAKQLQPLVNHDS | 1100 | 3.16 | 2870
unnamed (protein) MMNFNNVFRWHLPFLFLVLLTFRAAAADTLLILGDSLSAGYRMSASAAWPALLNDKWQSKTSVVNASISGDTSQQGLARLPALLKQHQPRWVLVELGGADGLRGFQPQQTEQTLRQILQDVKAANAEPLLMQIRLPANYGRRYNEAFSAIYPKLAKEFDVPLLPFFMEEVYLKPQWMQDDGIHPNRDAQPFIADWMAKQLQPLVNHDS | 1660 | 12 | 7220
unnamed (protein) MMNFNNVFRWHLPFLFLVLLTFRAAAADTLLILGDSLSAGYRMSASAAWPALLNDKWQSKTSVVNASISGDTSQQGLARLPALLKQHQPRWVLVELGGNDGLRGFQPQQTEQTLRQILQDVKAANAEPLLMQIRLPANYGRRYNEAFSAIYPKLAKEFDVPLLPFFMEEVYLKPQWMQDDGIHPNRDAQPFIADWMAKQLQPLVNHDS | 870 | 15.3 | 17600
